These results are taken from patent US12129222B2, “Production of bitter principle derivatives” (Julius-Maximilians-Universitaet Wuerzburg, priority 2016, dated 2024).

Non-standard residues stand in square brackets, D forms with d.

The experiment concerns the target MMP-8 (Homo sapiens, UniProt P22894). As to the kind of experiment: Enzymatic peptide cleavage by matrix metalloproteinases. Type of experiment: biochemical. The following applies: after cleavage from the resin; activated MMP, 1 h at 37° C., pH 7.0; LC-MS. The protocol:
(§1) For that, a 2-3 hour activation of the pre-MMP by p-aminophenyl mercury acetate (APMA 10 mM in 0.1 M NaOH) in a ratio of 10:1 (MMP:APMA v/v) takes place at 37° C. Subsequently, the activated MMP is added to the peptides dissolved in buffer (200 mM NaCl, 50 mM Tris-HCl, 5 mM CaCl2, 1 μM ZnCl2, 0.05% BRIJ® 35, 0.05% NaN3, pH 7.0) in defined concentrations (9 ng/ml, 45 ng/ml, 90 ng/ml, 225 ng/ml, 450 ng/ml, and 900 ng/ml) and incubated for 1 h at 37° C. The reaction is stopped by separation/filtration of the MMP by centrifugation or addition of 10 equivalents of EDTA (250 mM). The cleavage products are analyzed by liquid chromatography with masse spectrometry coupling (LC-MS).
as §1, with “concentrations” for “concentrations (9 ng/ml, 45 ng/ml, 90 ng/ml, 225 ng/ml, 450 ng/ml, and 900 ng/ml)”, “mass” for “masse”

MMP-8, sequence (P22894 101-467, species assumed): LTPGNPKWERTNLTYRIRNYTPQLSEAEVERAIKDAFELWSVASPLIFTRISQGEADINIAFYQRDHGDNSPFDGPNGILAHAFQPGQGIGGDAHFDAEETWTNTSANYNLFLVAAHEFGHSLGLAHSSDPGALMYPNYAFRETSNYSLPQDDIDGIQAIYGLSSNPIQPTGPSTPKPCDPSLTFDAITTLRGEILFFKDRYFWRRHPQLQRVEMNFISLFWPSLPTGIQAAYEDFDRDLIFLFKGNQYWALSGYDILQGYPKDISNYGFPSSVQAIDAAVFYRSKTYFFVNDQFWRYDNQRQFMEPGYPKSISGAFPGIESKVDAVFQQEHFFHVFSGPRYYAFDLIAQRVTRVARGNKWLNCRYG

As for “NH2-G-p-q-G-I-A-G-q-Q—COOH: peptide modified by replacing L by D amino acids (small letters mean D-amino acids) (H-G[dP][dQ]GIAG[dQ]Q-OH; SMILES CC[C@H](C)[C@H](NC(=O)CNC(=O)[C@@H](CCC(N)=O)NC(=O)[C@H]1CCCN1C(=O)CN)C(=O)N[C@@H](C)C(=O)NCC(=O)N[C@H](CCC(N)=O)C(=O)N[C@@H](CCC(N)=O)C(=O)O)”, the “cleavage by matrix metalloproteinases (MMP) such as MMP-8” value is “specifically cleaved”.
